In article PMC6180485, “Elongation/Termination Factor Exchange Mediated by PP1 Phosphatase Orchestrates Transcription Termination” (Cell Reports, 2018) one finds binding result and Kd data, which are given here for ten molecules.

B5: Full-length Seb1 with C-terminal His8-tag (natural protein, S. pombe, UniProt Q9UTE3 1-620, looked up)
chain: MSGIAEFDGILDSLEHSKTGISGSKILKLTNLSMENVSENAQFVASVYKYAKRAPVTHKLGALYILDSIVRSFQDGAKKNNESFENPVDASFSGGWCKAAEITDSLVADAIQHAPSAHLPKILKLCDIWEKASTFPPEKLESLRSKLKDAMASTEPVSVDSAAAPSQSTNPEGNGGSVGSQAAAPTSRPVENDAASILEALAAFAQKAPVPSAAEESVSTPPQPAVAPSVSAVVPNLPVHPATAINAQSQSGNPLSNPLFQPSNVPQSIPSGPMGMKTGSVNDTQSQQITLMNVLASQNVPPAQIDSIMKAAFPNYNAPFQPAGVGSVPLPAPTSSQSLRLGSLHRSRSPSPRSGRPRRSPSPSHLSIPSTLPPADGVPKPTPDGFPRRFERDPTIPPDSIKVYSRTLFLGGITRSVREPVLRSMFERFGSVQSLILNHNYRHGFLKMFRRDAAEKAQVAMENVPFADTTIRTKWGVGFGPRECSDFSTGISVIPIRLLTDADRTWLVTAEYGGTGGLPITPGIALDEPDIEIGLGISSKAISKRGKDFAMRRDERFRGRKPYRGGPPIHHGERHFDSGNDWHGNPSTVPPPTNPYNPGYPYMDPNYSSGYVSQPPWQPQ
notes: Seb1, S. pombe, full length; fractions containing monomeric Seb1 were used; also called Seb1(full-length)-His8; recombinant Seb1; source: E. coli Rosetta, purified (Ni-NTA, Superdex 200); not shown: His8, C-terminal, kept
B8: S. cerevisiae Rtt103 CID (domain or fragment)
chain: MPFSSEQFTTKLNTLEDSQESISSASKWLLLQYRDAPKVAEMWKEYMLRPSVNTRRKLLGLYLMNHVVQQAKGQKIIQFQDSFGKVAAEVLGRINQEFPRDLKKKLSRVVNILKERNIFSKQVVNDIERSLKTESSPVEALVLPQKLKDFAKDYEKLVKMHH
B9: S. cerevisiae Nrd1 CID1-152 (domain or fragment)
chain: MQQDDDFQNFVATLESFKDLKSGISGSRIKKLTTYALDHIDIESKIISLIIDYSRLCPDSHKLGSLYIIDSIGRAYLDETRSNSNSSSNKPGTCAHAINTLGEVIQELLSDAIAKSNQDHKEKIRMLLDIWDRSGLFQKSYLNAIRSKCFAM
B10: S. pombe Seb1 CID1-148 (domain or fragment)
chain: MSGIAEFDGILDSLEHSKTGISGSKILKLTNLSMENVSENAQFVASVYKYAKRAPVTHKLGALYILDSIVRSFQDGAKKNNESFENPVDASFSGGWCKAAEITDSLVADAIQHAPSAHLPKILKLCDIWEKASTFPPEKLESLRSKLK

Assay [1] concerns the target B5. In words: cross-linking; BS3 lysine-lysine cross-linking of reconstituted Seb1:Pol II (6:1 or 4:1 molar ratio) in CB buffer (50 mM HEPES pH 7.6, 150 mM NaCl), 30 min at 4 °C, mass spectrometry (pLink). Conditions: both partners purified.
For assay [2], the target named is T1, S. cerevisiae Pcf11 CID1-144 (S. cerevisiae, UniProt P39081 1-144).
T1 chain: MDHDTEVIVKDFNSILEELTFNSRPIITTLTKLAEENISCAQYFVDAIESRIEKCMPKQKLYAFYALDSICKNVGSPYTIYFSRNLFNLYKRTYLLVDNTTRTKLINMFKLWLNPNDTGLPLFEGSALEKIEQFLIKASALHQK
In words: FP.

Assay [3] deals with B8. In words: FP.
The target in assay [4] is B9. As to the kind of experiment: FP.
Assay [5] addresses B10. As to the kind of experiment: FP.
The target of assay [6] is T2, S. pombe Pcf11 CID1-139 with an N-terminal His6-SUMO tag (S. pombe).
T2 chain: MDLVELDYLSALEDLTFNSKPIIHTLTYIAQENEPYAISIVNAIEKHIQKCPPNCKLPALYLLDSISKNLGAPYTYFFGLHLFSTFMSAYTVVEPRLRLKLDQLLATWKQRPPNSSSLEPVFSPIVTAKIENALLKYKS
As to the kind of experiment: FP.

Assay [7] has as its target T3, Rpb2, subunit of S. pombe Pol II (S. pombe, UniProt Q02061 1-1210).
T3 construct: Rpb2, RNA polymerase II subunit, S. pombe; stood in the assay as a subunit of m11; source: endogenous, S. pombe (Rpb9-Flag strain), purified as part of Pol II (anti-Flag M2 agarose, HiTrap Q)
As to the kind of experiment: cross-linking; BS3 lysine-lysine cross-linking of reconstituted Seb1:Pol II (6:1 or 4:1 molar ratio) in CB buffer (50 mM HEPES pH 7.6, 150 mM NaCl), 30 min at 4 °C, mass spectrometry (pLink). The following applies: both partners purified.

Assay [8] addresses T4, Rpb1, subunit of S. pombe Pol II (S. pombe, UniProt P36594 1-1752, CTD phosphorylated (Thr4P, Tyr1P, Ser2P, Ser5P detected by western blot)).
T4 construct: Rpb1, largest subunit of RNA polymerase II, S. pombe; stood in the assay as a subunit of m11; source: endogenous, S. pombe (Rpb9-Flag strain), purified as part of Pol II (anti-Flag M2 agarose)
Described as above. The following applies: both partners purified.

Assay [9] has as its target T5, Double-repeated Ser5P (Schizosaccharomyces pombe).
T5 chain: {FAM}-YSPT[pS]PSYSPT[pS]PS
As to the kind of experiment: FP.

Non-standard residues stand in square brackets, D forms with d. No end group written: not given here. pS = N[C@@H](COP(=O)(O)O)C(=O)O; FAM = 5'-fluorescein amidite

By Kd is commonly meant the free concentration of one partner at which half of the binding sites on the other are occupied at equilibrium, for simple one-to-one binding.

T4 sequence (P36594 whole entry): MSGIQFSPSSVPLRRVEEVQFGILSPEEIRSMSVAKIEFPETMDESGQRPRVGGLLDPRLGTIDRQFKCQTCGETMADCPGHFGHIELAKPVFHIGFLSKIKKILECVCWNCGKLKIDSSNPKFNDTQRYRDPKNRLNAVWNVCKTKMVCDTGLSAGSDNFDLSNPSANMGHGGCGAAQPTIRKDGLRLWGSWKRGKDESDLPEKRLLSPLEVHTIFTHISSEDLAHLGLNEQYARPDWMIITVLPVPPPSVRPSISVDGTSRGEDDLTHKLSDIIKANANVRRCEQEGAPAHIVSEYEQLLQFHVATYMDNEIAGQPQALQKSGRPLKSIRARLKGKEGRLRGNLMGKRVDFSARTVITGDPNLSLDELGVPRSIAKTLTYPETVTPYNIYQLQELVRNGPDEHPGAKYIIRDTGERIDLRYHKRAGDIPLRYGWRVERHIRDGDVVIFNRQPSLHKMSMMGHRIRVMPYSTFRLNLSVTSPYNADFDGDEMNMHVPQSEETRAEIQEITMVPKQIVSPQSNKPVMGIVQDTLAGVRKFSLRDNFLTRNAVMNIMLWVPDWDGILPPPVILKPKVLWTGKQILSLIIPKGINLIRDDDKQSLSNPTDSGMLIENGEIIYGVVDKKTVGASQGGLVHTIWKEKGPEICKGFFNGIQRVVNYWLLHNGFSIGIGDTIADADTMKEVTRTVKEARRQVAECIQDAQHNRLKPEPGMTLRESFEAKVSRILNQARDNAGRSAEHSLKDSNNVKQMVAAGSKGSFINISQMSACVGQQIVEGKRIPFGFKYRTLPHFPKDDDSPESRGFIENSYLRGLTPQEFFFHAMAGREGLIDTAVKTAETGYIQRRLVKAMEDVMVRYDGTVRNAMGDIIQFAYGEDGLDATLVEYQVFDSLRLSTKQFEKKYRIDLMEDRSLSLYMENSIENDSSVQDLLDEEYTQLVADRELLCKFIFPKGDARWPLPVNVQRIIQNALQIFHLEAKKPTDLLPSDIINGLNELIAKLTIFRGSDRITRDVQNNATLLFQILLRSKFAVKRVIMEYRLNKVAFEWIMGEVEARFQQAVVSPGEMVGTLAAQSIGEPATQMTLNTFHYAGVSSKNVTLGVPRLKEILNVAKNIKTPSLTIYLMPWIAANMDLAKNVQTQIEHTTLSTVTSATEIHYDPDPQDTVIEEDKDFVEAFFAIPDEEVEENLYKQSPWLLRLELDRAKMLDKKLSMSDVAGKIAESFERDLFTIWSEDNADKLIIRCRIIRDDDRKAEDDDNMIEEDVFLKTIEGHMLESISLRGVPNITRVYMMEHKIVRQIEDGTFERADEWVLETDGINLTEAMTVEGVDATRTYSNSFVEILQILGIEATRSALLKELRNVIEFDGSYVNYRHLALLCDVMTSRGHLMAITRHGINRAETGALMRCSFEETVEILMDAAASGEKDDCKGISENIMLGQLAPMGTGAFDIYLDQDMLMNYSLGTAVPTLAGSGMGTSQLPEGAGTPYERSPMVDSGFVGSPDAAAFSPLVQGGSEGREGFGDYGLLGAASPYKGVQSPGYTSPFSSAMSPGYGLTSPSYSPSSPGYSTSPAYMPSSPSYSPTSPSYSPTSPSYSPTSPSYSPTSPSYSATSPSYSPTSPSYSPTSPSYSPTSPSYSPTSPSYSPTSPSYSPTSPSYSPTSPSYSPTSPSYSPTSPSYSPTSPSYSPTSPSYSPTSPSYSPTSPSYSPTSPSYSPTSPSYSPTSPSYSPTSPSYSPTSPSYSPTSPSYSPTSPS
T3 sequence (Q02061 whole entry): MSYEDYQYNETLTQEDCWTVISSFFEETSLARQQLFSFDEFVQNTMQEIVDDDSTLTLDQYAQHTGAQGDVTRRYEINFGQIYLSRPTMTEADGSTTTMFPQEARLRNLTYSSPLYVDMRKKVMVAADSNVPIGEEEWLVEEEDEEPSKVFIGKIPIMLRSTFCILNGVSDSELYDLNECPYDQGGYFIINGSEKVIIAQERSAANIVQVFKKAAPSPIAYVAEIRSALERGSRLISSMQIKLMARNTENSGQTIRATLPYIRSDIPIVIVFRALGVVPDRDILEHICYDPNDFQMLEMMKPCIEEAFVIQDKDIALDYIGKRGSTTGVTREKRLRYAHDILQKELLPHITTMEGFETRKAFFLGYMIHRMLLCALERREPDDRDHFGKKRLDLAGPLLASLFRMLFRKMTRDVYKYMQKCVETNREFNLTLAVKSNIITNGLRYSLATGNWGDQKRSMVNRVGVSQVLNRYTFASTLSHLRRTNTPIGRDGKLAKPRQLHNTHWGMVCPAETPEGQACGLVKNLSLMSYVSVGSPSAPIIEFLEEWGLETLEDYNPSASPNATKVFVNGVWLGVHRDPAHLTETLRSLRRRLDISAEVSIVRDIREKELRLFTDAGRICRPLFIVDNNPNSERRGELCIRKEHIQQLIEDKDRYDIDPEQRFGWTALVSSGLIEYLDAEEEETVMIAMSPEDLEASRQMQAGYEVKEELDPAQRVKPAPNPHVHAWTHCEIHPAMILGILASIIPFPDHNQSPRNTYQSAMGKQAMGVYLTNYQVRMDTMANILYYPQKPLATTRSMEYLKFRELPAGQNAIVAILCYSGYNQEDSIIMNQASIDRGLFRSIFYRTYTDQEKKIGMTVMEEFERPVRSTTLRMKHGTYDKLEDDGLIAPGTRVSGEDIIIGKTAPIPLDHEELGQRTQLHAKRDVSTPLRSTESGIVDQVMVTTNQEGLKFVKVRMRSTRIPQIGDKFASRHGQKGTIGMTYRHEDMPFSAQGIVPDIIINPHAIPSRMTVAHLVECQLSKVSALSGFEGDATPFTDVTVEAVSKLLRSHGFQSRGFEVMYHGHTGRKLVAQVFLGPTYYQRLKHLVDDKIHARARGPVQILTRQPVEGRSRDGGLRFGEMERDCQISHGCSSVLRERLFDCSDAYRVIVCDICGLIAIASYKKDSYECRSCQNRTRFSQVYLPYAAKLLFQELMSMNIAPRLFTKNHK

B1: Rpc10, subunit of S. pombe Pol II (natural protein, UniProt P48011 1-63, looked up)
chain: MNHPTSTGGTAFNPPRPATMIYLCADCGARNTIQAKEVIRCRECGHRVMYKMRTKRMVQFEAR
notes: Rpc10, RNA polymerase subunit, S. pombe; stood in the assay as a subunit of m11; source: endogenous, S. pombe (Rpb9-Flag strain), purified as part of Pol II (anti-Flag M2 agarose, HiTrap Q)
B1: the binding result in assay [1] was “binds”.

B2: Rpb7, subunit of S. pombe Pol II (natural protein, UniProt O14459 1-172, looked up)
chain: MPFFLKELSLTISLHPSYFGPRMQDYLKAKLLADVEGTCSGQYGYIICVLDSNTIDIDKGRVVPGQGFAEFEVKYRAVLWRPFRGEVVDAIVTTVNKMGFFANIGPLNVFVSSHLVPPDMKFDPTANPPNYSGEDQVIEKGSNVRLKIVGTRTDATEIFAIATMKEDYLGVL
notes: Rpb7, RNA polymerase II subunit, S. pombe; stood in the assay as a subunit of m11; source: endogenous, S. pombe (Rpb9-Flag strain), purified as part of Pol II (anti-Flag M2 agarose, HiTrap Q)
Turning to B2, in assay [1], the binding result is reported as “binds”.

B3: Rpb3, subunit of S. pombe Pol II (natural protein, UniProt P37382 1-297, looked up)
chain: MDSETHITIRNISKNSVDFVLTNTSLAVANSLRRVVLAEIPTVAIDLVEINVNTSVMPDEFLAHRLGMIPLDSSNIDEPPPVGLEYTRNCDCDQYCPKCSVELFLNAKCTGEGTMEIYARDLVVSSNSSLGHPILADPKSRGPLICKLRKEQEISLRCIAKKGIAKEHAKWSPTSAVAFEYDPWNKLQHTDYWFENDADAEWPKSKNADWEEPPREGEPFNFQEEPRRFYMDVESVGSIPPNEIMVQGLRILQEKLAVLVRDLDEEQPTQLSANELNMEENAEMNWSPYQNGEENTW
notes: Rpb3, RNA polymerase II subunit, S. pombe; stood in the assay as a subunit of m11; source: endogenous, S. pombe (Rpb9-Flag strain), purified as part of Pol II (anti-Flag M2 agarose, HiTrap Q)
B3: the binding result in assay [1] is “binds”.

B4: FAM-labeled two-repeat CTD peptide, Ser2P (peptide)
chain: {FAM}-YSPTSPSYSPTSPS
modifications: also: phospho-Ser2 of heptad, which repeat not given here
Consider B4, for which the Kd was 127 µM in [2]; 32.3 µM in assay [3]; 126 µM in assay [4]; 72.3 µM in assay [5]; 48.1 µM in [6]. Regarding B5, the binding result in assay [7] and in [8] was “binds” throughout.

B6: Rpb5, subunit of S. pombe Pol II (natural protein, UniProt Q09191 1-210, looked up)
chain: MSAEEKNIVRVFRAWKTAHQLVHDRGYGVSQAELDLTLDQFKAMHCGMGRNLDRTTLSFYAKPSNDSNKGTIYIEFAKEPSVGIKEMRTFVHTLGDHNHKTGILIYANSMTPSAAKIIATVTGQFTIETFQESDLIVNITHHELVPKHILLSPDEKKELLDRYKLRETQLPRIQLADPVARYLGLKRGEVVKIVRRSETSGRYNSYRICA
notes: Rpb5, RNA polymerase subunit, S. pombe; stood in the assay as a subunit of m11; source: endogenous, S. pombe (Rpb9-Flag strain), purified as part of Pol II (anti-Flag M2 agarose, HiTrap Q)
Regarding B6, the binding result in assay [1] is on record as “binds”.

B7: Rpb4, subunit of S. pombe Pol II (natural protein, UniProt O74825 1-135, looked up)
chain: MPRAIFEEDAAQLKLGPEFENEDMLTVSEAKILIETVLAQRARETNGEIPMTDVMKKTVAYFNVFARFKTAEATYACERILGNRFHKFERAQLGTLCCEDAEEARTLIPSLANKIDDQNLQGILDELSTLRKFQD
notes: Rpb4, RNA polymerase II subunit, S. pombe; stood in the assay as a subunit of m11; source: endogenous, S. pombe (Rpb9-Flag strain), purified as part of Pol II (anti-Flag M2 agarose, HiTrap Q)
With B7, in assay [1], the binding result was “binds”. Molecule B8 showed a dissociation constant Kd in assay [9] greater than 1000 µM. Molecule B9 displayed a dissociation constant (Kd) in assay [9] of 65.8 µM. That is a double-digit micromolar value. As to B10, in [9], the Kd was 281 µM.
